Where a chain is given by its changes, count along the chain named. Numbers in names are those of the source.
B1: Id_ii_S4_P5E.4_K5.3_C5.2_[T-1C]_H5.3_A5.1_F5.1_T5.2_[A12G] (ssRNA)
RNA: UUUGACAACUGAUCGUUCUUUCUCCACACUUAUUAUGUUCUUUCUCGAUCAGUUGUCUUU
B2: Id_ii_S4_P5E.4_K5.3_C5.2_H5.3_A5.1_F5.1_T5.2_[A12T] (ssRNA)
RNA: B1 RNA with C25U, G37U
B3: Id_ii_S4_P5E.4_K5.3_C5.2_H5.3_A5.1_F5.1_T5.2_[T11G]_[A12C] (ssRNA)
RNA: B1 RNA with C25U, U36G, G37C

Target: T1, PUF4 RNA-binding domain (Saccharomyces cerevisiae, UniProt P25339 537-888)
T1 sequence: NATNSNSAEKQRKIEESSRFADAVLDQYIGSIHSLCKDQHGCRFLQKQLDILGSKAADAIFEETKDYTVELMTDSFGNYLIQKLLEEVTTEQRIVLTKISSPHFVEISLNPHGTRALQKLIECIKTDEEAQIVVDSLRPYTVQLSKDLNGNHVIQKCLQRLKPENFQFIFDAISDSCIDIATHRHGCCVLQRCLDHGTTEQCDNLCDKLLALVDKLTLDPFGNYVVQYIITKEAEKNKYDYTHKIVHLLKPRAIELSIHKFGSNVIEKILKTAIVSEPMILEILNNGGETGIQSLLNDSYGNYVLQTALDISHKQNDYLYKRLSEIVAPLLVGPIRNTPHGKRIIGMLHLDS
Test: Mg; RNA-MaP; 20 mM Na-HEPES pH 7.4, 30 mM KOAc, 0.75 mM MgCl2, 0.1% Tween-20, 5% glycerol, 0.1 mg/mL BSA, 2 mM DTT; 25 C; 0.0125-409.6 nM protein
Conditions: tags: N-His6-TEV cleaved; C-SNAP kept, Cy3B-labelled; label: tethered on chip by stalled RNA polymerase

| Binder | Kd [nM] |
| --- | --- |
| UCUCUUCCUUGUAAAUAUAUCUCUU (ssRNA) [Id_iii_S1_P3E.8_K3.4_C3.3_[T-3C]_H3.1_A3.2_F3.1_T3.2] | 16.5 |
| UCUCUUUCUUGUAUAUAUGUCUCUU (ssRNA) [Id_iii_S1_P3E.5_K3.1_C3.3_H3.1_A3.1_F3.1_T3.2_[A10G]] | 7.51 |
| UCUCUUUUUUGUAAAAAUAUCUCUU (ssRNA) [Id_iii_S1_P3E.9_K3.5_C3.3_[C-2T]_H3.1_A3.2_F3.2_T3.2] | 78.2 |
| UCUCUUUCUUAUAUAUUAUUUCUCUU (ssRNA) [Id_iii_S1_P4E.6_K4.2_C4.3_H4.2_A4.1_F4.1_T4.2_[G10T]] | 15.1 |
| UCUCUUUCAUAUAUAUAUAUCUCUU (ssRNA) [Id_iii_S1_P3E.6_K3.2_C3.3_[T-1A]_H3.2_A3.1_F3.1_T3.2] | 592 |
| UCUCUUUCUUAUAUAUUAAUUCUCUU (ssRNA) [Id_iii_S1_P4E.6_K4.2_C4.3_H4.2_A4.1_F4.1_T4.2_[G10A]] | 18.1 |
| B1 | > 2300 |
| B2 | > 2300 |
| B3 | > 2300 |
| UCUCUUUUUACACUAUAUAUCUCUU (ssRNA) [Id_iii_S1_P3E.7_K3.3_C3.3_[C-2T]_H3.3_A3.1_F3.1_T3.2] | 2050 |
| UCUCUUUCGUGUAUAUUAGUUCUCUU (ssRNA) [Id_iii_S1_P4E.5_K4.1_C4.3_[T-1G]_H4.1_A4.1_F4.1_T4.2] | 0.46 |
| UCUCUUCCUUGUAUAUUAGUUCUCUU (ssRNA) [Id_iii_S1_P4E.5_K4.1_C4.3_[T-3C]_H4.1_A4.1_F4.1_T4.2] | 0.347 |
| UCUCUUUGUGUCAUUAUCUCUU (ssRNA) [Ib_S1_P5E.1_K5.1_C5.1_H5.1_[A4G]_A5.1_[T6C]_F5.1_T5.1] | 30.7 |
| UCUCUUUCUUAUAUAUACAUCUCUU (ssRNA) [Id_iii_S1_P3E.6_K3.2_C3.3_H3.2_A3.1_F3.1_T3.2_[T9C]] | 972 |
| UCUCUUUCUUGUAAAUAAAUCUCUU (ssRNA) [Id_iii_S1_P3E.8_K3.4_C3.3_H3.1_A3.2_F3.1_T3.2_[T9A]] | 40.2 |
| UCUCUUUCUUAUAUAUUACUUCUCUU (ssRNA) [Id_iii_S1_P4E.6_K4.2_C4.3_H4.2_A4.1_F4.1_T4.2_[G10C]] | 15.9 |
| UCUCUUUCUACACUAUAUUUCUCUU (ssRNA) [Id_iii_S1_P3E.7_K3.3_C3.3_H3.3_A3.1_F3.1_T3.2_[A10T]] | 2010 |
| UCUCUUUGUUCUAUUAUCUCUU (ssRNA) [Ib_S1_P5E.1_K5.1_C5.1_H5.1_[A4T]_A5.1_[T5C]_F5.1_T5.1] | 31.7 |
| UCUCUUUGUACACUAUUAGUUCUCUU (ssRNA) [Id_iii_S1_P4E.7_K4.3_C4.3_[C-2G]_H4.3_A4.1_F4.1_T4.2] | 1.04 |
| UCUCUUUCAUGUAUAUAUAUCUCUU (ssRNA) [Id_iii_S1_P3E.5_K3.1_C3.3_[T-1A]_H3.1_A3.1_F3.1_T3.2] | 6.5 |
| UCUCUUUGUUUGAUUAUCUCUU (ssRNA) [Ib_S1_P5E.1_K5.1_C5.1_H5.1_[A4T]_A5.1_[T6G]_F5.1_T5.1] | 122 |

| Binder | Kd [nM] |
| --- | --- |
| UCUCUUUUUUGUAAAUAUAUCUCUU (ssRNA) [Id_iii_S1_P3E.8_K3.4_C3.3_[C-2T]_H3.1_A3.2_F3.1_T3.2] | 17.6 |
| UCUCUUACUUAUAUAUAUAUCUCUU (ssRNA) [Id_iii_S1_P3E.6_K3.2_C3.3_[T-3A]_H3.2_A3.1_F3.1_T3.2] | 113 |
| UCUCUUUCAACACUAUAUAUCUCUU (ssRNA) [Id_iii_S1_P3E.7_K3.3_C3.3_[T-1A]_H3.3_A3.1_F3.1_T3.2] | 1700 |
| UCUCUUUGUUGUAUAUAUAUCUCUU (ssRNA) [Id_iii_S1_P3E.5_K3.1_C3.3_[C-2G]_H3.1_A3.1_F3.1_T3.2] | 5.21 |
| UCUCUUUCAUGUAUAUUAGUUCUCUU (ssRNA) [Id_iii_S1_P4E.5_K4.1_C4.3_[T-1A]_H4.1_A4.1_F4.1_T4.2] | 0.332 |
| UCUCUUUAUACACUAUAUAUCUCUU (ssRNA) [Id_iii_S1_P3E.7_K3.3_C3.3_[C-2A]_H3.3_A3.1_F3.1_T3.2] | 31.6 |
| UCUCUUUCUUGUAAAUAUCUCUCUU (ssRNA) [Id_iii_S1_P3E.8_K3.4_C3.3_H3.1_A3.2_F3.1_T3.2_[A10C]] | 27.6 |
| UCUCUUACUACACUAUAUAUCUCUU (ssRNA) [Id_iii_S1_P3E.7_K3.3_C3.3_[T-3A]_H3.3_A3.1_F3.1_T3.2] | 900 |
| UCUCUUUCUUAUAUAUAUGUCUCUU (ssRNA) [Id_iii_S1_P3E.6_K3.2_C3.3_H3.2_A3.1_F3.1_T3.2_[A10G]] | 755 |
| UCUCUUUAUUAUAUAUAUAUCUCUU (ssRNA) [Id_iii_S1_P3E.6_K3.2_C3.3_[C-2A]_H3.2_A3.1_F3.1_T3.2] | 373 |
| UCUCUUUCGUGUAUAUAUAUCUCUU (ssRNA) [Id_iii_S1_P3E.5_K3.1_C3.3_[T-1G]_H3.1_A3.1_F3.1_T3.2] | 6.72 |
| UCUCUUUCCUGUAUAUAUAUCUCUU (ssRNA) [Id_iii_S1_P3E.5_K3.1_C3.3_[T-1C]_H3.1_A3.1_F3.1_T3.2] | 4.14 |
| UCUCUUUUUUGUAUAUUAGUUCUCUU (ssRNA) [Id_iii_S1_P4E.5_K4.1_C4.3_[C-2T]_H4.1_A4.1_F4.1_T4.2] | 0.395 |
| UCUCUUUCGUAUAUAUAUAUCUCUU (ssRNA) [Id_iii_S1_P3E.6_K3.2_C3.3_[T-1G]_H3.2_A3.1_F3.1_T3.2] | 502 |
| UCUCUUUCUUGUAUAUUAUUUCUCUU (ssRNA) [Id_iii_S1_P4E.5_K4.1_C4.3_H4.1_A4.1_F4.1_T4.2_[G10T]] | 0.649 |
| UCUCUUUCUUGUAAAUAUGUCUCUU (ssRNA) [Id_iii_S1_P3E.8_K3.4_C3.3_H3.1_A3.2_F3.1_T3.2_[A10G]] | 28.7 |
| UCUCUUUCUUGUAUAUUACUUCUCUU (ssRNA) [Id_iii_S1_P4E.5_K4.1_C4.3_H4.1_A4.1_F4.1_T4.2_[G10C]] | 1.02 |
| UCUCUUGCUUAUAUAUAUAUCUCUU (ssRNA) [Id_iii_S1_P3E.6_K3.2_C3.3_[T-3G]_H3.2_A3.1_F3.1_T3.2] | 380 |
| UCUCUUUGUCUAAUUAUCUCUU (ssRNA) [Ib_S1_P5E.1_K5.1_C5.1_H5.1_[A4C]_A5.1_[T6A]_F5.1_T5.1] | 115 |
| UCUCUUACUUGUAUAUAUAUCUCUU (ssRNA) [Id_iii_S1_P3E.5_K3.1_C3.3_[T-3A]_H3.1_A3.1_F3.1_T3.2] | 5.04 |
| UCUCUUUGUUGUAUAUUAGUUCUCUU (ssRNA) [Id_iii_S1_P4E.5_K4.1_C4.3_[C-2G]_H4.1_A4.1_F4.1_T4.2] | 0.332 |

| Binder | Kd [nM] |
| --- | --- |
| UCUCUUUUUUAUAUAUUAGUUCUCUU (ssRNA) [Id_iii_S1_P4E.6_K4.2_C4.3_[C-2T]_H4.2_A4.1_F4.1_T4.2] | 11 |
| UCUCUUCCUUAUAUAUAUAUCUCUU (ssRNA) [Id_iii_S1_P3E.6_K3.2_C3.3_[T-3C]_H3.2_A3.1_F3.1_T3.2] | 364 |
| UCUCUUUCUACACUAUACAUCUCUU (ssRNA) [Id_iii_S1_P3E.7_K3.3_C3.3_H3.3_A3.1_F3.1_T3.2_[T9C]] | 2260 |
| UCUCUUUUUUAUAUAUAUAUCUCUU (ssRNA) [Id_iii_S1_P3E.6_K3.2_C3.3_[C-2T]_H3.2_A3.1_F3.1_T3.2] | 486 |
| UCUCUUACUUGUAAAUAUAUCUCUU (ssRNA) [Id_iii_S1_P3E.8_K3.4_C3.3_[T-3A]_H3.1_A3.2_F3.1_T3.2] | 25.7 |
| UCUCUUUCUUGUAUAUAUUUCUCUU (ssRNA) [Id_iii_S1_P3E.5_K3.1_C3.3_H3.1_A3.1_F3.1_T3.2_[A10T]] | 6.04 |
| UCUCUUUGUCUCAUUAUCUCUU (ssRNA) [Ib_S1_P5E.1_K5.1_C5.1_H5.1_[A4C]_A5.1_[T6C]_F5.1_T5.1] | 35.9 |
| UCUCUUUGUGUAAUUAUCUCUU (ssRNA) [Ib_S1_P5E.1_K5.1_C5.1_H5.1_[A4G]_A5.1_[T6A]_F5.1_T5.1] | 27.5 |
| UCUCUUUCUUGUAUAUAUCUCUCUU (ssRNA) [Id_iii_S1_P3E.5_K3.1_C3.3_H3.1_A3.1_F3.1_T3.2_[A10C]] | 6.06 |
| UCUCUUUAUUGUAUAUAUAUCUCUU (ssRNA) [Id_iii_S1_P3E.5_K3.1_C3.3_[C-2A]_H3.1_A3.1_F3.1_T3.2] | 9.45 |
| UCUCUUUAUUGUAAAUAUAUCUCUU (ssRNA) [Id_iii_S1_P3E.8_K3.4_C3.3_[C-2A]_H3.1_A3.2_F3.1_T3.2] | 18.2 |
| UCUCUUUCGUGUAAAUAUAUCUCUU (ssRNA) [Id_iii_S1_P3E.8_K3.4_C3.3_[T-1G]_H3.1_A3.2_F3.1_T3.2] | 18.6 |
| UCUCUUGCUUGUAAAUAUAUCUCUU (ssRNA) [Id_iii_S1_P3E.8_K3.4_C3.3_[T-3G]_H3.1_A3.2_F3.1_T3.2] | 20.2 |
| UCUCUUUCCUGUAAAUAUAUCUCUU (ssRNA) [Id_iii_S1_P3E.8_K3.4_C3.3_[T-1C]_H3.1_A3.2_F3.1_T3.2] | 11.1 |
| UCUCUUUUUUGUAUAUAUAUCUCUU (ssRNA) [Id_iii_S1_P3E.5_K3.1_C3.3_[C-2T]_H3.1_A3.1_F3.1_T3.2] | 6.24 |
| UCUCUUUCUUAUAUAUUAGCUCUCUU (ssRNA) [Id_iii_S1_P4E.6_K4.2_C4.3_H4.2_A4.1_F4.1_T4.2_[T11C]] | 8.45 |
| UCUCUUCCUUGUAUAUAUAUCUCUU (ssRNA) [Ie_S1_P3E.2_K3.1_C3.2_[+-2C]_H3.1_A3.1_F3.1_T3.2] | 6.23 |
| UCUCUUUAUUGUAUAUUAGUUCUCUU (ssRNA) [Id_iii_S1_P4E.5_K4.1_C4.3_[C-2A]_H4.1_A4.1_F4.1_T4.2] | 0.362 |
| UCUCUUUCAUGUAAAUAUAUCUCUU (ssRNA) [Id_iii_S1_P3E.8_K3.4_C3.3_[T-1A]_H3.1_A3.2_F3.1_T3.2] | 19.7 |
| UCUCUUUGUACACUAUAUAUCUCUU (ssRNA) [Id_iii_S1_P3E.7_K3.3_C3.3_[C-2G]_H3.3_A3.1_F3.1_T3.2] | 1.32 |
